Experimental data reported in US20230176070A1 (published 2023).

T1: MBP-PDZ fusion protein (mammalian (so in the source), UniProt P57105 6-100, limits assumed)
T1 construct: domain: PDZ domain; also called MBP fusion PDZ
T1 sequence (looked up): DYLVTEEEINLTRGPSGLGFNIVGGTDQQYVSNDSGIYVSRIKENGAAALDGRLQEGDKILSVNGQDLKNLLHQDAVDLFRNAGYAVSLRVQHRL

T2: PDZ domain of mitochondrial outer membrane protein 25 (mammalian (so in the source), UniProt P57105 6-100, limits assumed)
T2 construct: domain: PDZ domain; Wild type PDZ as coated in ELISA and immobilised in SPR; also called wild type PDZ; OMP25 PDZ domain
T2 sequence (looked up): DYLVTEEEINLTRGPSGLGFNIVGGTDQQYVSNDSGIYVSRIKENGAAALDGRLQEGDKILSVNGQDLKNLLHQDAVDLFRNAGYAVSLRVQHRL


Assays:
human serum albumin [1] = molecular target: T3, human serum albumin (human, UniProt P02768 25-609); assay: indirect ELISA, HSA coated
T3 construct: In the mutant screen wild type HSA came from medium of transfected HeLa cells; also called HSA; wild type HSA
Procedure: (§1) Indirect ELISA was carried out to evaluate the camelid immune response of an antigen and to quantify the relative affinities of antigen-specific Nbs. An antigen was coated onto a 96-well ELISA plate (R&D system) at an amount of approximately 1-10 ng per well in a coating buffer (15 mM sodium carbonate, 35 mM sodium bicarbonate, pH 9.6) overnight at 4° C. The well surface was then blocked with a blocking buffer (DPBS, 0.05% Tween 20, 5% milk) at room temperature for 2 hours. To test an immune response, the immunized serum was serially 5-fold diluted in the blocking buffer. The diluted sera were incubated with the antigen coated wells at room temperature for 2 hours. HRP-conjugated secondary antibodies against llama Fc (Bethyl) were diluted 1:10,000 in the blocking buffer and incubated with each well for 1 hour at room temperature. […] Nbs of both specific binders for test and scramble negative controls were serially 10-fold diluted from 10 μM to 1 μM in the blocking buffer. HRP-conjugated secondary antibodies against His-tag (Genscript) or T7-tag (Thermo) were diluted 1:5,000 or 1:10,000 in the blocking buffer and incubated for 1 hour at room temperature. Three washes with 1x PBST (DPBS, 0.05% Tween 20) were carried out to remove nonspecific absorbance between incubations. After the final wash, the samples were further incubated under dark with freshly prepared w3,3′,5,5′-Tetramethylbenzidine (TMB) substrate for 10 mins at room temperature to develop the signals. After the STOP solution (R&D system), the plates were read at multiple wavelengths (450 nm and 550 nm) on a plate reader (Multiskan GO, Thermo Fisher). A false positive Nb binder was defined if any of the following two criteria was met: i) the ELISA signal can only be detected at a concentration of 10 μM and was under detected at 1 μM concentration. ii) At 1 μM concentration, a pronounced signal decrease (by more than 10-fold) was detected compared to the signal at 10 μM, while there were no signals can be detected at lower concentrations. The raw data was processed by Prism 7 (GraphPad) to fit into a 4PL curve and to calculate logIC50.

human serum albumin [2] = molecular target: T3, human serum albumin; assay: SPR, HSA immobilised;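 further: nanobody analytes injected as dilution series across three log units over CM5 chip with amine-coupled antigen, kinetics fitted by 1:1 Langmuir model, optionally with mass transfer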
Procedure: (§2) Nb affinity measurement by SPR. Surface plasmon resonance (SPR, Biacore 3000 system, GE Healthcare) was used to measure Nb affinities. Antigen proteins immobilized on the activated CM5 sensor-chip by the following steps. Protein analytes were diluted to 10-30 μg/ml in 10 mM sodium acetate, pH 4.5, and were injected into the SPR system at 5 μl/min for 420 s. The surface of the sensor was then blocked by 1 M ethanolamine-HCl (pH 8.5). For each Nb analyte, a series of dilution (spanning three orders of magnitude) was injected in HBS-EP+ running buffer (GE-Healthcare) containing 2 mM DTT, at a flow rate of 20-30 μl/min for 120-180 s, followed by a dissociation time of 5-20 mins based on dissociation rate. Between each injection, the sensor chip surface was regenerated with the low pH buffer containing 10 mM glycine-HCl (pH 1.5-2.5), or high pH buffer of 20-40 mM NaOH (pH 12-13). The regeneration was performed with a flow rate of 40-50 μl/min for 30 s. The measurements were duplicated and only highly reproducible data was used for analysis. Binding sensorgrams for each Nb were processed and analyzed using BIAevaluation by fitting with 1:1 Langmuir model or 1:1 Langmuir model with mass transfer.

MBP-PDZ fusion protein = molecular target: T1, MBP-PDZ fusion protein; assay: beads-binding assay, MBP-PDZ-coupled resin
Procedure: After Nb induction and cell lysis, the cell lysates were run on SDS-PAGE to estimate Nb expression levels. Recombinant Nbs in the cell lysis were diluted in 1x DPBS (pH 7.4) to a final concentration of ˜5 μM (for GST Nbs) and ˜50 nM (for PDZ Nbs). To test the specific interactions of Nbs with antigens, different antigens were coupled to the CNBr resin. Inactivated or MBP-conjugated CNBr resin was used for control. Antigen coupled resins or control resins were incubated with Nb lysates at 4° C. for 30 mins. The resins were then washed three times with a washing buffer (1x DPBS with 150 mM NaCl and 0.05% Tween 20) to remove nonspecific bindings. Specific antigen bound Nbs were then eluted from the resins by the hot LDS buffer containing 20 mM DTT and ran on SDS-PAGE. The intensities of Nbs on the gel were compared between antigen specific signals and control signals to derive the false positive binding.

[3] = molecular target: T4, glutathione S-transferase (UniProt P08515 1-218 = GST); assay: SPR, GST immobilised;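 further: nanobody analytes injected as dilution series over three orders of magnitude across antigen on a CM5 chip, kinetics fitted by 1:1 Langmuir model, optionally with mass transfer, duplicate runs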
T4 construct: Expressed in E. coli, purified on GSH resin; also called GST
Procedure: as §2

[4] = molecular target: T4, glutathione S-transferase; assay: SPR, GST immobilised (legend of FIG. 3H; differs from Table 1)
Procedure: as §2

[5] = molecular target: T4, glutathione S-transferase; assay: indirect ELISA, GST coated;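 further: nanobody dilution series starting at 10 µM binding plate-bound antigen, HRP anti-His or anti-T7 tag detection, TMB absorbance at 450 nm, logIC50 from four-parameter logistic fit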
Procedure: as §1

[6] = molecular target: T2, PDZ domain of mitochondrial outer …; assay: SPR, PDZ immobilised
[7] = molecular target: T2, PDZ domain of mitochondrial outer …; assay: indirect ELISA, wild type PDZ coated
Procedure: Indirect ELISA was carried out to evaluate the camelid immune response of an antigen and to quantify the relative affinities of antigen-specific Nbs. An antigen was coated onto a 96-well ELISA plate (R&D system) at an amount of approximately 1-10 ng per well in a coating buffer (15 mM sodium carbonate, 35 mM sodium bicarbonate, pH 9.6) overnight at 4° C. The well surface was then blocked with a blocking buffer (DPBS, 0.05% Tween 20, 5% milk) at room temperature for 2 hours. To test an immune response, the immunized serum was serially 5-fold diluted in the blocking buffer. The diluted sera were incubated with the antigen coated wells at room temperature for 2 hours. […] Three washes with 1x PBST (DPBS, 0.05% Tween 20) were carried out to remove nonspecific absorbance between incubations. […] After the STOP solution (R&D system), the plates were read at multiple wavelengths (450 nm and 550 nm) on a plate reader (Multiskan GO, Thermo Fisher). A false positive Nb binder was defined if any of the following two criteria was met: i) the ELISA signal can only be detected at a concentration of 10 μM and was under detected at 1 μM concentration. ii) At 1 μM concentration, a pronounced signal decrease (by more than 10-fold) was detected compared to the signal at 10 μM, while there were no signals can be detected at lower concentrations. […]

human serum albumin [8] = molecular target: T3, human serum albumin; assay: SPR, HSA immobilised (legend of FIG. 3I; differs from Table 2)
Procedure: as §2

T4 sequence (P08515 whole entry): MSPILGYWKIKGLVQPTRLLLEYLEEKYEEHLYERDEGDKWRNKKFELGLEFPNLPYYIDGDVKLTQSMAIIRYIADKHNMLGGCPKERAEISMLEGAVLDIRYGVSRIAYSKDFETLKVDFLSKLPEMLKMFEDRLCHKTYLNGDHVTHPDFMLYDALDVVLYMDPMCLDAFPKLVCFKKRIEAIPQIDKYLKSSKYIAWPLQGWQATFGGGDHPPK
T3 sequence (P02768 25-609 limits assumed): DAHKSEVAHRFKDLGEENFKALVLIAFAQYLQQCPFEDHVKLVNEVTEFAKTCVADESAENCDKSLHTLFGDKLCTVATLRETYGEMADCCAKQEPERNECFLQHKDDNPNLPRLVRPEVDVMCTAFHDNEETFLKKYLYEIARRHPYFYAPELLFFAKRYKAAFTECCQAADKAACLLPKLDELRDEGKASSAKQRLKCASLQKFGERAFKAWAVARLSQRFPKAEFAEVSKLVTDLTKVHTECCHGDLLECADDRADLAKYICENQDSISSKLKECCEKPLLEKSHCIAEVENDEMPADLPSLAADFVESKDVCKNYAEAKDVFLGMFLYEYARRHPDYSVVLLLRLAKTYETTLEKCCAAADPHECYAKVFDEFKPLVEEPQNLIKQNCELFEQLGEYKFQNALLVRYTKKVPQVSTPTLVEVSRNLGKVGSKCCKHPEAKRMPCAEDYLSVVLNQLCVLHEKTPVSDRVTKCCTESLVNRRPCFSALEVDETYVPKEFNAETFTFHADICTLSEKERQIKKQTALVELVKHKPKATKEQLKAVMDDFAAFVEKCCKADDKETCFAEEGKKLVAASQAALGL

ELISA affinity (LogIC50 (oD450nm)) (human serum albumin [1])	Kd (human serum albumin [2])	koff (human serum albumin [2])	kon (human serum albumin [2])	binding result (MBP-PDZ fusion protein)	Binder	other results
5.88	0.17 nM	3.99e-05 s⁻¹	234000 M⁻¹ s⁻¹	–	H2 (VHH) VHH: QVQLVESGGGLVQAGGSLRLSCTASGRTFTPYTIGWFRQAPGKEREFVASILWSGINTDYADSVKGRFAISRDNAKNAAYLQMSNLKPEDTAVYYCATGGGLGYYRSVSQYDYWGQGTQVTVSE	–
–	–	–	–	binds	P1 (VHH) VHH: DVQLVESGGGLVQPGGSLRLSCAASGFTLDDYAIGWFRQAPGKEREGVSCISSHGSTYYADSVKGRFTISRDNVKNTLYLQMNSLKPEDTALYYCAASYYSDYEVAVCRSDALDAWGQGTQVTVSE	–
5.12	1.66 nM	0.00868 s⁻¹	5.24e+06 M⁻¹ s⁻¹	–	H28 (VHH, also called N28) VHH: DVQLVESGGGLAQAGGSLRLSCAASGRTFSNECMGWFRQAPGKEREFVATIRSTGHISYATSVQGRFTVSRDIAKNTVYLEMNNLKPEDTAVYSCGAGVSDYGCYRTSGYNYWGQGTQVTVSS	–
5.99	0.0862 nM	0.000116 s⁻¹	1.34e+06 M⁻¹ s⁻¹	–	H16 (VHH) VHH: QVQLVESGGGLVQTGGSLTLSCAASGRTFSTKSMGWFRQAPGKEREFVADINWNGGITHYADSVEGRFTISRDNANDMVYLQMNSLKPEDTAVYYCAGGRYSTLFSKSEADYDYWGQGTQVTVSS	–
7	0.454 nM	0.000504 s⁻¹	1.11e+06 M⁻¹ s⁻¹	–	H3 (VHH) VHH: QVQLVESGGGLVQAGGSLRLSCVASGRTFEPFVMGWFRQAPGKEREFVATISWSGGSLSYADSVKGRFTVSRDNAKNTVYLQMNSLKPEDTAVYYCAAAPGVGNYRYTFQYDYWGQGTQVTVSE	–
5.76	0.247 nM	3.8e-05 s⁻¹	154000 M⁻¹ s⁻¹	–	H20 (VHH) VHH: EVQLVESGGGLVQAGGSLRLSCTASGPKDTPYTMGWFRQVPGKEREFVASVLWSGINTDYADSVKGRFAISRNNAKNTMYLQMNSLKPEDTAVYYCAAGYGLGFYRTVSQYDYWGHGTQVTVSS	–
5.34	0.858 nM	0.000802 s⁻¹	936000 M⁻¹ s⁻¹	–	H25 (VHH) VHH: DVQLVESGGGLVQAGGSLRLSCAASGRTISDYGMAWFRQAPGKEREFVGVITSNSVTTYYADSVKGRFTISRDNTKNTVYLQMISLKPEDTAIYYCAARIPVGFYYNARNYDFWGQGTQVTVSS	–

Continued, binder first:

Binder	ELISA affinity (LogIC50 (oD450nm)) (human serum albumin [1])	Kd (human serum albumin [2])	koff (human serum albumin [2])	kon (human serum albumin [2])	binding result (MBP-PDZ fusion protein)	other results
H11 (VHH) VHH: QVQLVESGGGLVQVGGSLRLSCAASGRTFSNYVMGWFRQAPGKEREFVAYIHWSGSSTSYADSVKGRFTISRDNTKNTMYLQMNSLKPEDTAVYYCTADQYASTLLRAAGEYWGQGTQVTVSS	6.27	0.061 nM	1.55e-05 s⁻¹	255000 M⁻¹ s⁻¹	–	–
P4 (VHH) VHH: HVQLVESGGGLVQAGGSLRLSCAAAGRTSSDYAMGWFRQAPGKEREFVSAINWSGISTYYADSVKGRFTISRDNAKNTVHLQMNSLKPEDTAVYYCAAEKLESLRNWHDPLMYDYWGQGTQVTVSE	–	–	–	–	binds	–
H35 (VHH) VHH: EVQLVESGGGLVQAGGSLRVSCAVSGISIYHSGWYRQAPGKERELVAGISRGGSTNYADSVKGRFTISRDSGENTVYLQMNSLKPEDTAVYYCKIDWDYRGVSQTAWGQGTQVTVSS	–	–	–	–	–	binding result (human serum albumin [1]): no binding (tested: Nb titrated from 10 µM)
P2 (VHH) VHH: DVQLVESGGGLVQAGGSLRLSCAASGHTFSSYTMGWFHQAPGKEREFVAEISGTGGNTGYADSVKGRFTISRDNAKNTVYLQMNSLKPEDTAVYYCAAVIGSPTDSSDYRSSLDYDYWGQGTQVTVSE	–	–	–	–	binds	–
P3 (VHH) VHH: DVQLVESGGGLVQAGGSLRLSCAASGRTFSSYTMGWFHQAPGKEREFVAEIGGTGGNTGYADSVKGRFTISRDNAKNTVYLQMNSLKPEDTAVYYCAAVIGSPTDSSDYRSSLDYDYWGQGTQVTVSE	–	–	–	–	binds	–
P6 (VHH) VHH: HVQLVESGGGLVQAGGSLRLSCAASGRTFSRYTMGWFHQAPGKEREFVAEISGTGGNTGYADSVKGRFTMSRDNAKNTVYLQMNSLKPEDTGVYYCAAVIGSPTDSSDYRSSLDYDYWGQGTQVTVSE	–	–	–	–	binds	–
H4 (VHH) VHH: HVQLVESGGGLVQTGGSLRLACAASGRAFSTYAMGWFRQAPGKEREFVASINRSGSSTYYADSVKGRFTISRDNGKDTVYLQMNRLIPEDTAVYYCAADSEGVGFRNMLEYDYWGQGTQVTVSS	5.4	0.266 nM	0.000264 s⁻¹	992000 M⁻¹ s⁻¹	–	–
P15 (VHH) VHH: QVQLVESGGGLVQAGGSLRLSCVASGRPFSSLDMGWFRQRPGKERDVVATINWTGDSTYYLDSVKGRFTISRDNAKNTVFLQMNSLKPEDTAVYYCAARGGGSSVDSEYDVGEFEYDYWGQGTQVTVSS	–	–	–	–	binds	–
G60 (VHH, also called G60(C1)) VHH: QMGRNSAEVQLVESGGSLRLSCAASGSGFSSSIIAWYRQAPGKQRELVAAIGGPGSTNYADFVEGRFTISRDNAKNTGYLQMNNLNPEDTAVYYCNEVTRSGREYWGQGTQVTVSS	–	–	–	–	–	Kd [3]: 1200 nM; koff [3]: 0.00586 s⁻¹; kon [3]: 4870 M⁻¹ s⁻¹; Kd [4]: 1300 nM; ELISA affinity (LogIC50 (oD450nm)) [5]: 2.49
NbPDZ P10 (VHH) VHH: DVQLVESGGGLVQAGGSLRLSCTASGRTFSTYTMAWFRQAPGKEREFVAAITWSGTYYADSVKGRFTISRDNAKNTMYLQMNSLKPEDTAVYICAAVIGSTVDSYSPSDPLEYDYWGQGTQVTVSE	–	–	–	–	–	Kd [6]: 4.4 pM; koff [6]: 9.03e-06 s⁻¹; kon [6]: 2.06e+06 M⁻¹ s⁻¹; WT ELISA affinity (LogIC50 (oD450nm)) [7]: 5.21
H18 (VHH) VHH: EVQLVESGGGLVQAGGSLRLSCTASGPKDTPYTMGWFRQVPGKEREFVASVLWSGINTDYADSVKGRFAISRNNAKNTMYLQMNSLKPEDTAVYYCAAGYGLGFYRSISQYDYWGHGTQVTVSS	5.65	0.502 nM	8.71e-05 s⁻¹	171000 M⁻¹ s⁻¹	–	–
P5 (VHH) VHH: DVQLVESGGGLVQAGDSLRLSCAASGITFRWYTMAWFRQAPGKERDFVATINWSGSDTNYADSVKGRFTISRDNAKNTVTLQMNSLQPEDTAVYYCAGVPGTSLSGETDPRDYDYWGQGTQVTVSE	–	–	–	–	binds	–
H14 (VHH) VHH: HVQLVESGGGLVQAGGSLRLSCTASGRTFTPYTMGWFRQAPGKEREFVASILWSGNNRDYADSVKDRFAISRDNAKNTAYLQMNSLKPEDTAVYYCAAGDGLGFYRSVNQYDYWGQGTQVTVSS	5.96	0.0223 nM	5.57e-06 s⁻¹	250000 M⁻¹ s⁻¹	–	koff (human serum albumin [8]): 5.75e-06 s⁻¹
H21 (VHH) VHH: QVQLVESGGGLVQAGGSLRLSCAASGYTSGNDAMGWFRQAPGKEREFVGAIRWSGVSTYYADSVKGRFTISRDGAKNTLYLQMNSLKPEDTAVYYCAAKFTGSAWYGVQKLESTYWDYWGQGTQVTVSS	5.63	0.266 nM	0.000182 s⁻¹	683000 M⁻¹ s⁻¹	–	–
H7 (VHH) VHH: DVQLVESGGGSVQAGGSLRLSCAASGGTFSSYAMGWYRQAPGKEREFVSGISWSGSSIDYVDSVKGRFTISRDNAKNTVYLQMNSLKPEDTAVYYCGAADPMGLGYGLGPRPVDRLLSAECDYWGQGTQVTVSS	5.62	1.09 nM	9.79e-05 s⁻¹	93500 M⁻¹ s⁻¹	–	–
H30 (VHH) VHH: HVQLVESGGGLAQAGGSLRLSCAASGGTFSNSCMGWFRQAPGMEREFVAIIRSTGHTTYADSVEGRFTVSRDIAKNTVYLEMNSLKPEDTAVYSCVAGVSDYGCYRTSGIKYWGQGTQVTVSS	5.89	0.164 nM	0.000168 s⁻¹	1.03e+06 M⁻¹ s⁻¹	–	–
